# Experiments:
# [1] = target: MUC1 (human) (UniProt P15941); assay: surface staining, flow cytometry, K562 CTL-siRNA cells; 2 µg antibody/sample; fixed samples kept at 4° C. for 4 days
# [2] = target: MUC1 (human) (UniProt P15941); assay: flow cytometry, KU812/MUC1siRNA cells (MUC1 silenced, labelled MUC1-negative)
# [3] = target: MUC1 (human) (UniProt P15941); assay: surface staining, flow cytometry, KU812 cells; 2 µg antibody/sample
# [4] = target: MUC1 (human) (UniProt P15941); assay: surface staining, flow cytometry, ZR-75-1 cells (second row); 2 µg antibody/sample
# [5] = target: MUC1 (human) (UniProt P15941); assay: surface staining, flow cytometry, U266 cells; 2 µg antibody/sample
# [6] = target: MUC1 (human) (UniProt P15941); assay: surface staining, flow cytometry, KU812 CML cells; 2 µg antibody/sample
# [7] = target: MUC1 (human) (UniProt P15941); assay: surface staining, flow cytometry, K562 CML cells; 2 µg antibody/sample
# [8] = target: MUC1 (human) (UniProt P15941); assay: surface staining, flow cytometry, RPMI8266 cells; 2 µg antibody/sample
# [9] = target: MUC1 (human) (UniProt P15941); assay: flow cytometry, K562/MUC1siRNA cells (MUC1 silenced, labelled MUC1-negative)
# [10] = target: MUC1 (human) (UniProt P15941); assay: surface staining, flow cytometry, primary breast cancer patient cells RG563999; 2 µg antibody/sample
# [11] = target: MUC1 (human) (UniProt P15941); assay: surface staining, flow cytometry, KU812 MUC1-siRNA cells (MUC1 silenced, second block); 2 µg antibody/sample
# [12] = target: MUC1 (human) (UniProt P15941); assay: surface staining, flow cytometry, U266 MUC1-siRNA cells (MUC1 silenced); 2 µg antibody/sample
# [13] = target: MUC1 (human) (UniProt P15941); assay: flow cytometry, K562/Con siRNA cells (MUC1-positive)
# [14] = target: MUC1 (human) (UniProt P15941); assay: surface staining, flow cytometry, ME559203 cells; 2 µg antibody/sample
# [15] = target: MUC1 (human) (UniProt P15941); assay: surface staining, flow cytometry, U266 MUC1-siRNA cells (MUC1 silenced, second block); 2 µg antibody/sample
# [16] = target: MUC1 (human) (UniProt P15941); assay: surface staining, flow cytometry, U266 CTL-siRNA cells (second block); 2 µg antibody/sample
# [17] = target: MUC1 (human) (UniProt P15941); assay: surface staining, flow cytometry, ZR-75-1 cells (third row); 2 µg antibody/sample
# [18] = target: MUC1 (human) (UniProt P15941); assay: flow cytometry, KU812/Con siRNA cells (MUC1-Positive)
# [19] = target: MUC1 (human) (UniProt P15941); assay: surface staining, flow cytometry, K562 MUC1-siRNA cells (MUC1 silenced); 2 µg antibody/sample
# [20] = target: MUC1 (human) (UniProt P15941); assay: surface staining, flow cytometry, KU812 CTL-siRNA cells (second block); 2 µg antibody/sample
# [21] = target: MUC1 (human) (UniProt P15941); assay: surface staining, flow cytometry, ZR-75-1 cells; 2 µg antibody/sample
# [22] = target: MUC1 (human) (UniProt P15941); assay: surface staining, flow cytometry, KU812 MUC1-siRNA cells (MUC1 silenced); 2 µg antibody/sample
# [23] = target: MUC1 (human) (UniProt P15941); assay: surface staining, flow cytometry, U266 CTL-siRNA cells; 2 µg antibody/sample
# [24] = target: MUC1 (human) (UniProt P15941); assay: flow cytometry, U266/Con siRNA cells (MUC1-positive)
# [25] = target: MUC1 (human) (UniProt P15941); assay: surface staining, flow cytometry, MV4-11 cells; 2 µg antibody/sample
# [26] = target: MUC1 (human) (UniProt P15941); assay: surface staining, flow cytometry, primary breast cancer patient cells JB564765; 2 µg antibody/sample
# [27] = target: MUC1 (human) (UniProt P15941); assay: surface staining, flow cytometry, MOLM-14 cells; 2 µg antibody/sample, PE-conjugated goat anti-mouse 2nd antibody
# [28] = target: MUC1 (human) (UniProt P15941); assay: surface staining, flow cytometry, KU812 CTL-siRNA cells; 2 µg antibody/sample
# [29] = target: MUC1 (human) (UniProt P15941); assay: surface staining, flow cytometry, KMS28PE cells; 2 µg antibody/sample
# [30] = target: MUC1 (human) (UniProt P15941); assay: surface staining, flow cytometry, primary breast cancer patient cells RG563999 (second row); 2 µg antibody/sample
# [31] = target: MUC1 (human) (UniProt P15941); assay: surface staining, flow cytometry, K562 cells; 2 µg antibody/sample
# [32] = target: MUC1 (human) (UniProt P15941); assay: flow cytometry, U266/MUC1siRNA cells (MUC1 silenced, labelled MUC1-negative)
# Chain of MUC1 (human) (P15941 24-1255): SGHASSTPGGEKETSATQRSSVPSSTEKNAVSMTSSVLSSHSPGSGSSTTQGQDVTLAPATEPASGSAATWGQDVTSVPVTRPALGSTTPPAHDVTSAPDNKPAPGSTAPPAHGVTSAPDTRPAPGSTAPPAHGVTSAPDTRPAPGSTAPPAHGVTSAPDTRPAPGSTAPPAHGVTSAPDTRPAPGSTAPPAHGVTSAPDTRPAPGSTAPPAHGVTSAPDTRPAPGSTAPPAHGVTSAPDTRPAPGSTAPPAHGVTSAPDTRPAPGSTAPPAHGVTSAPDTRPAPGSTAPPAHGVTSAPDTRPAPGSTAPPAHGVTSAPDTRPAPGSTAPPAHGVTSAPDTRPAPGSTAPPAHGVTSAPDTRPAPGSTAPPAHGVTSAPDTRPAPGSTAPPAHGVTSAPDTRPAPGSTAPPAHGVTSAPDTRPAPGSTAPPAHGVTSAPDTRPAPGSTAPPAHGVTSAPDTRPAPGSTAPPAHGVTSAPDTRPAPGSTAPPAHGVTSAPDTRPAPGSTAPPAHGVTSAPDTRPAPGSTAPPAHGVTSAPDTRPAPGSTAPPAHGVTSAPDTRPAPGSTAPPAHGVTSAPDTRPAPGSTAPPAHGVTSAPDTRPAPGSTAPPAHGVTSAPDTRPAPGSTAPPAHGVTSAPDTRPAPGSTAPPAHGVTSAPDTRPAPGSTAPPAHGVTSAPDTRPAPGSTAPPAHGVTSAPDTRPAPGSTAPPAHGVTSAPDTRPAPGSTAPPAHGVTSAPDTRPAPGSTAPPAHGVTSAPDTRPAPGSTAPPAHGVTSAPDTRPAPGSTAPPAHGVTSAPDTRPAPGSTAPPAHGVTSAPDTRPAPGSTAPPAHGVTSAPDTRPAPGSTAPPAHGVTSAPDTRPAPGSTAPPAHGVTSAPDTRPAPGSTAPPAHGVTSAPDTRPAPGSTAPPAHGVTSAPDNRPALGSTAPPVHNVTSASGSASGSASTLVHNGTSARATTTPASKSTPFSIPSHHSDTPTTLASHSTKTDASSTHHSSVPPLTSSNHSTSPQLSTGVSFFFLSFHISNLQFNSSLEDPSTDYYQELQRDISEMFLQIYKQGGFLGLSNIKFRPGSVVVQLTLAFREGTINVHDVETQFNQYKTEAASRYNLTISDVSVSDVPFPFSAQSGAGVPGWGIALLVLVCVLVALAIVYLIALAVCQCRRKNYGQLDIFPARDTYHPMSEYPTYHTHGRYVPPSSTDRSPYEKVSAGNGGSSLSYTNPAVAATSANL
substance,measurement,setting,value
DF3 (antibody),flow cytometry value (unit not given),[1],40.6
same,flow cytometry value (unit not given),[2],35.4
same,flow cytometry value (unit not given),[3],98.1
same,flow cytometry value (unit not given),[4],6.84
same,flow cytometry value (unit not given),[5],99.2
same,flow cytometry value (unit not given),[6],90.5
same,flow cytometry value (unit not given),[7],77.9
same,flow cytometry value (unit not given),[8],95
same,flow cytometry value (unit not given),[9],17.1
same,flow cytometry value (unit not given),[10],60.5
same,flow cytometry value (unit not given),[11],85.4
same,flow cytometry value (unit not given),[12],16.2
same,flow cytometry value (unit not given),[13],40.6
same,flow cytometry value (unit not given),[14],57
same,flow cytometry value (unit not given),[15],13.5
same,flow cytometry value (unit not given),[16],96.5
same,flow cytometry value (unit not given),[17],89.5
same,flow cytometry value (unit not given),[18],95.2
same,flow cytometry value (unit not given),[19],17.1
same,flow cytometry value (unit not given),[20],95.2
same,flow cytometry value (unit not given),[21],98.5
same,flow cytometry value (unit not given),[22],69.2
same,flow cytometry value (unit not given),[23],94.7
same,flow cytometry value (unit not given),[24],94.7
same,flow cytometry value (unit not given),[25],74.2
same,flow cytometry value (unit not given),[26],21.1
same,flow cytometry value (unit not given),[27],99.5
same,flow cytometry value (unit not given),[28],96.6
same,flow cytometry value (unit not given),[29],58.2
same,flow cytometry value (unit not given),[30],11.9
same,flow cytometry value (unit not given),[31],78.8
same,flow cytometry value (unit not given),[32],13.5

# From patent US20160340442A1
